We go through ten proteins from patent US20090099029.

Sequences and labels used below:
T1: Bovine, dephosphorylated, Myelin Basic Protein (MBP), P02687
T1 chain: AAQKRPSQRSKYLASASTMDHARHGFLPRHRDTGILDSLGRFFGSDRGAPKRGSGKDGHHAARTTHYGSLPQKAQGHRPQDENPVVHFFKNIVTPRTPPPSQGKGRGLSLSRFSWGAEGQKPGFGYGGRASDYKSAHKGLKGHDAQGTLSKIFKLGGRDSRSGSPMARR

B1: PRKCI (protein)
chain: MPTQRDSSTMSHTVAGGGSGDHSHQVRVKAYYRGDIMITHFEPSISFEGLCNEVRDMCSFDNEQLFTMKWIDEEGDPCTVSSQLELEEAFRLYELNKDSELLIHVFPCVPERPGMPCPGEDKSIYRRGARRWRKLYCANGHTFQAKRFNRRAHCAICTDRIWGLGRQGYKCINCKLLVHKKCHKLVTIECGRHSLPQEPVMPMDQSSMHSDHAQTVIPYNPSSHESLDQVGEEKEAMNTRESGKASSSLGLQDFDLLRVIGRGSYAKVLLVRLKKTDRIYAMKVVKKELVNDDEDIDWVQTEKHVFEQASNHPFLVGLHSCFQTESRLFFVIEYVNGGDLMFHMQRQRKLPEEHARFYSAEISLALNYLHERGIIYRDLKLDNVLLDSEGHIKLTDYGMCKEGLRPGDTTSTFCGTPNYIAPEILRGEDYGFSVDWWALGVLMFEMMAGRSPFDIVGSSDNPDQNTEDYLFQVILEKQIRIPRSLSVKAASVLKSFLNKDPKERLGCHPQTGFADIQGHPFFRNVDWDMMEQKQVVPPFKPNISGEFGLDNFDSQFTNEPVQLTPDDDDIVRKIDQSEFEGFEYINPLLMSAEECV
B2: PRKCQ (protein)
chain: MSPFLRIGLSNFDCGSCQSCQGEAVNPYCAVLVKEYVESENGQMYIQKKPTMYPPWDSTFDAHINKGRVMQIIVKGKNVDLISETTVELYSLAERCRKNNGKTEIWLELKPQGRMLMNARYFLEMSDTKDMNEFETEGFFALHQRRGAIKQAKVHHVKCHEFTATFFPQPTFCSVCHEFVWGLNKQGYQCRQCNAAIHKKCIDKVIAKCTGSAINSRETMFHKERFKIDMPHRFKVYNYKSPTFCEHCGTLLWGLARQGLKCDACGMNVHHRCQTKVANLCGINQKLMAEALAMIESTQQARCLRDTEQIFREGPVEIGLPCSIKNEARPPCLPTPGKREPQGISWESPLDEVDKMCHLPEPELNKERPSLQIKLKIEDFILHKMLGKGSFGKVFLAEFKKTNQFFAIKALKKDVVLMDDDVECTMVEKRVLSLAWEHPFLTHMFCTFQTKENLFFVMEYLNGGDLMYHIQSCHKFDLSRATFYAAEIILGLQFLHSKGIVYRDLKLDNILLDKDGHIKIADFGMCKENMLGDAKTNTFCGTPDYIAPEILLGQKYNHSVDWWSFGVLLYEMLIGQSPFHGQDEEELFHSIRMDNPFYPRWLEKEAKDLLVKLFVREPEKRLGVRGDIRQHPLFREINWEELERKEIDPPFRPKVKSPFDCSNFDKEFLNEKPRLSFADRALINSMDQNMFRNFSFMNPGMERLIS
B3: PRKCZ (protein)
chain: MPSRTGPKMEGSGGRVRLKAHYGGDIFITSVDAATTFEELCEEVRDMCRLHQQHPLTLKWVDSEGDPCTVSSQMELEEAFRLARQCRDEGLIIHVFPSTPEQPGLPCPGEDKSIYRRGARRWRKLYRANGHLFQAKRFNRRAYCGQCSERIWGLARQGYRCINCKLLVHKRCHGLVPLTCRKHMDSVMPSQEPPVDDKNEDADLPSEETDGIAYISSSRKHDSIKDDSEDLKPVIDGMDGIKISQGLGLQDFDLIRVIGRGSYAKVLLVRLKKNDQIYAMKVVKKELVHDDEDIDWVQTEKHVFEQASSNPFLVGLHSCFQTTSRLFLVIEYVNGGDLMFHMQRQRKLPEEHARFYAAEICIALNFLHERGIIYRDLKLDNVLLDADGHIKLTDYGMCKEGLGPGDTTSTFCGTPNYIAPEILRGEEYGFSVDWWALGVLMFEMMAGRSPFDIITDNPDMNTEDYLFQVILEKPIRIPRFLSVKASHVLKGFLNKDPKERLGCRPQTGFSDIKSHAFFRSIDWDLLEKKQALPPFQPQITDDYGLDNFDTQFTSEPVQLTPDDEDAIKRIDQSEFEGFEYINPLLLSTEESV
B4: PHKG2 (protein)
chain: MTLDVGPEDELPDWAAAKEFYQKYDPKDVIGRGVSSVVRRCVHRATGHEFAVKIMEVTAERLSPEQLEEVREATRRETHILRQVAGHPHIITLIDSYESSSFMFLVFDLMRKGELFDYLTEKVALSEKETRSIMRSLLEAVSFLHANNIVHRDLKPENILLDDNMQIRLSDFGFSCHLEPGEKLRELCGTPGYLAPEILKCSMDETHPGYGKEVDLWACGVILFTLLAGSPPFWHRRQILMLRMIMEGQYQFSSPEWDDRSSTVKDLISRLLQVDPEARLTAEQALQHPFFERCEGSQPWNLTPRQRFRVAVWTVLAAGRVALSTHRVRPLTKNALLRDPYALRSVRHLIDNCAFRLYGHWVKKGEQQNRAALFQHRPPGPFPIMGPEEEGDSAAITEDEAVLVLG
B5: PLK3 (protein)
chain: SGRTYLKGRLLGKGGFARCYEATDTETGSAYAVKVIPQSRVAKPHQREKILNEIELHRDLQHRHIVRFSHHFEDADNIYIFLELCSRKSLAHIWKARHTLLEPEVRYYLRQILSGLKYLHQRGILHRDLKLGNFFITENMELKVGDFGLAARLEPPEQRKKTICGTPNYVAPEVLLRQGHGPEADVWSLGCVMYTLLCGSPPFETADLKETYRCIKQVHYTLPASLSLPARQLLAAILRASPRDRPSIDQILRHDFFTKGYTPDRLPISSCVTVPDLTPPNPA
B6: EPHB1 (protein)
chain: SRKRAYSKEAVYSDKLQHYSTGRGSPGMKIYIDPFTYEDPNEAVREFAKEIDVSFVKIEEVIGAGEFGEVYKGRLKLPGKREIYVAIKTLKAGYSEKQRRDFLSEASIMGQFDHPNIIRLEGVVTKSRPVMIITEFMENGALDSFLRQNDGQFTVIQLVGMLRGIAAGMKYLAEMNYVHRDLAARNILVNSNLVCKVSDFGLSRYLQDDTSDPTYTSSLGGKIPVRWTAPEAIAYRKFTSASDVWSYGIVMWEVMSFGERPYWDMSNQDVINAIEQDYRLPPPMDCPAALHQLMLDCWQKDRNSRPRFAEIVNTLDKMIRNPASLKTVATITAVPSQPLLDRSIPDFTAFTTVDDWLSAIKMVQYRDSFLTAGFTSLQLVTQMTSEDLLRIGITLAGHQKKILNSIHSMRVQISQSPTAMA
B7: PAK6 (protein)
chain: MFRKKKKKRPEISAPQNFQHRVHTSFDPKEGKFVGLPPQWQNILDTLRRPKPVVDPSRITRVQLQPMKTVVRGSAMPVDGYISGLLNDIQKLSVISSNTLRGRSPTSRRRAQSLGLLGDEHWATDPDMYLQSPQSERTDPHGLYLSCNGGTPAGHKQMPWPEPQSPRVLPNGLAAKAQSLGPAEFQGASQRCLQLGACLQSSPPGASPPTGTNRHGMKAAKHGSEEARPQSCLVGSATGRPGGEGSPSPKTRESSLKRRLFRSMFLSTAATAPPSSSKPGPPPQSKPNSSFRPPQKDNPPSLVAKAQSLPSDQPVGTFSPLTTSDTSSPQKSLRTAPATGQLPGRSSPAGSPRTWHAQISTSNLYLPQDPTVAKGALAGEDTGVVTHEQFKAALRMVVDQGDPRLLLDSYVKIGEGSTGIVCLAREKHSGRQVAVKMMDLRKQQRRELLFNEVVIMRDYQHFNVVEMYKSYLVGEELWVLMEFLQGGALTDIVSQVRLNEEQIATVCEAVLQALAYLHAQGVIHRDIKSDSILLTLDGRVKLSDFGFCAQISKDVPKRKSLVGTPYWMAPEVISRSLYATEVDIWSLGIMVIEMVDGEPPYFSDSPVQAMKRLRDSPPPKLKNSHKVSPVLRDFLERMLVRDPQERATAQELLDHPFLLQTGLPECLVPLIQLYRKQTSTC
B8: PRKD1(PKD) (protein)
chain: MSAPPVLRPPSPLLPVAAAAAAAAAALVPGSGPGPAPFLAPVAAPVGGISFHLQIGLSREPVLLLQDSSGDYSLAHVREMACSIVDQKFPECGFYGMYDKILLFRHDPTSENILQLVKAASDIQEGDLIEVVLSASATFEDFQIRPHALFVHSYRAPAFCDHCGEMLWGLVRQGLKCEGCGLNYHKRCAFKIPNNCSGVRRRRLSNVSLTGVSTIRTSSAELSTSAPDEPLLQKSPSESFIGREKRSNSQSYIGRPIHLDKILMSKVKVPHTFVIHSYTRPTVCQYCKKLLKGLFRQGLQCKDCRFNCHKRCAPKVPNNCLGEVTINGDLLSPGAESDVVMEEGSDDNDSERNSGLMDDMEEAMVQDAEMAMAECQNDSGEMQDPDPDHEDANRTISPSTSNNIPLMRVVQSVKHTKRKSSTVMKEGWMVHYTSKDTLRKRHYWRLDSKCITLFQNDTGSRYYKEIPLSEILSLEPVKTSALIPNGANPHCFEITTANVVYYVGENVVNPSSPSPNNSVLTSGVGADVARMWEIAIQHALMPVIPKGSSVGTGTNLHRDISVSISVSNCQIQENVDISTVYQIFPDEVLGSGQFGIVYGGKHRKTGRDVAIKIIDKLRFPTKQESQLRNEVAILQNLHHPGVVNLECMFETPERVFVVMEKLHGDMLEMILSSEKGRLPEHITKFLITQILVALRHLHFKNIVHCDLKPENVLLASADPFPQVKLCDFGFARIIGEKSFRRSVVGTPAYLAPEVLRNKGYNRSLDMWSVGVIIYVSLSGTFPFNEDEDIHDQIQNAAFMYPPNPWKEISHEAIDLINNLLQVKMRKRYSVDKTLSHPWLQDYQTWLDLRELECKIGERYITHESDDLRWEKYAGEQGLQYPTHLINPSASHSDTPETEETEMKALGERVSIL
B9: PRKCE (protein)
chain: MVVFNGLLKIKICEAVSLKPTAWSLRHAVGPRPQTFLLDPYIALNVDDSRIGQTATKQKTNSPAWHDEFVTDVCNGRKIELAVFHDAPIGYDDFVANCTIQFEELLQNGSRHFEDWIDLEPEGRVYVIIDLSGSSGEAPKDNEERVFRERMRPRKRQGAVRRRVHQVNGHKFMATYLRQPTYCSHCRDFIWGVIGKQGYQCQVCTCVVHKRCHELIITKCAGLKKQETPDQVGSQRFSVNMPHKFGIHNYKVPTFCDHCGSLLWGLLRQGLQCKVCKMNVHRRCETNVAPNCGVDARGIAKVLADLGVTPDKITNSGQRRKKLIAGAESPQPASGSSPSEEDRSKSAPTSPCDQEIKELENNIRKALSFDNRGEEHRAASSPDGQLMSPGENGEVRQGQAKRLGLDEFNFIKVLGKGSFGKVMLAELKGKDEVYAVKVLKKDVILQDDDVDCTMTEKRILALARKHPYLTQLYCCFQTKDRLFFVMEYVNGGDLMFQIQRSRKFDEPRSRFYAAEVTSALMFLHQHGVIYRDLKLDNILLDAEGHCKLADFGMCKEGILNGVTTTTFCGTPDYIAPEILQELEYGPSVDWWALGVLMYEMMAGQPPFEADNEDDLFESILHDDVLYPVWLSKEAVSILKAFMTKNPHKRLGCVASQNGEDAIKQHPFFKEIDWVLLEQKKIKPPFKPRIKTKRDVNNFDQDFTREEPVLTLVDEAIVKQINQEEFKGFSYFGEDLMP
B10: EPHB2 (protein)
chain: CNRRGFERADSEYTDKLQHYTSGHMTPGMKIYIDPFTYEDPNEAVREFAKEIDISCVKIEQVIGAGEFGEVCSGHLKLPGKREIFVAIKTLKSGYTEKQRRDFLSEASIMGQFDHPNVIHLEGVVTKSTPVMIITEFMENGSLDSFLRQNDGQFTVIQLVGMLRGIAAGMKYLADMNYVHRDLAARNILVNSNLVCKVSDFGLSRFLEDDTSDPTYTSALGGKIPIRWTAPEAIQYRKFTSASDVWSYGIVMWEVMSYGERPYWDMTNQDVINAIEQDYRLPPPMDCPSALHQLMLDCWQKDRNHRPKFGQIVNTLDKMIRNPNSLKAMAPLSSGINLPLLDRTIPDYTSFNTVDEWLEAIKMGQYKESFANAGFTSFDVVSQMMMEDILRVGVTLAGHQKKILNSIQVMRAQMNQIQSVEV

In this data set the target is T1, Bovine, dephosphorylated, Myelin Basic ….
Turning to B1, the “MBP Kinase Activity” value is given as “Strong”.

As for B2, the “MBP Kinase Activity” value is recorded as “Strong”.

For B3, the “MBP Kinase Activity” value is “Strong”.

As to B4, the “MBP Kinase Activity” value is reported as “Negative”.

On to B5, for which the “MBP Kinase Activity” value was “Negative”.

For B6, the “MBP Kinase Activity” value is “Strong”.

For B7, the “MBP Kinase Activity” value was “Negative”.

On to B8, for which the “MBP Kinase Activity” value is “Weak”.

With B9, the “MBP Kinase Activity” value is on record as “Strong”.

Turning to B10, the “MBP Kinase Activity” value is recorded as “Strong”.
